Test results taken from ChEMBL document CHEMBL4422612, “Small Molecule Inhibitor that Stabilizes the Autoinhibited Conformation of the Oncogenic Tyrosine Phosphatase SHP2” (J Med Chem, 2019).

Legend:
[1] = compound: CCOc1cc(O)c(C(=O)/C=C/c2ccc(Cl)cc2Cl)cc1CN1CCC=C(n2c(=O)[nH]c3ccccc32)C1; assay: Mixed type inhibition of human wild-type full length SHP2 assessed as substrate Kcat at 10 uM using H-Glu-Phe-pTyr-Ala-Glu-Val-Gly-Arg-Ser-Pro-Pro-Asp-Pro-Ala-Lys as substrate by Lineweaver-Burk plot analysis (reference value: 3.19 +/- 0.28 Sec'-1)
[2] = compound: CCOc1cc(O)c(C(=O)/C=C/c2ccc(Cl)cc2Cl)cc1CN1CCC=C(n2c(=O)[nH]c3ccccc32)C1; assay: Mixed type inhibition of human wild-type full length SHP2 assessed as Kcat/Km ratio at 20 uM using H-Glu-Phe-pTyr-Ala-Glu-Val-Gly-Arg-Ser-ProPro-Asp-Pro-Ala-Lys as substrate by Lineweaver-Burk plot analysis (reference value: 100.3 +/- 25 /mM/sec)
[3] = compound: CCOc1cc(O)c(C(=O)/C=C/c2ccc(Cl)cc2Cl)cc1CN1CCC=C(n2c(=O)[nH]c3ccccc32)C1; assay: Mixed type inhibition of human wild-type full length SHP2 assessed as Kcat/Km ratio at 10 uM using H-Glu-Phe-pTyr-Ala-Glu-Val-Gly-Arg-Ser-Pro-Pro-Asp-Pro-Ala-Lys as substrate by Lineweaver-Burk plot analysis (reference value: 100.3 +/- 25 /mM/sec)
[4] = compound: CCOc1cc(O)c(C(=O)/C=C/c2ccc(Cl)cc2Cl)cc1CN1CCC=C(n2c(=O)[nH]c3ccccc32)C1; assay: Mixed type inhibition of human wild-type full length SHP2 assessed as substrate Km at 20 uM using H-Glu-Phe-pTyr-Ala-Glu-Val-Gly-Arg-Ser-Pro-Pro-Asp-Pro-Ala-Lys as substrate by Lineweaver-Burk plot analysis (reference value: 0.034 +/- 0.012 mM)
[5] = compound: CCOc1cc(O)c(C(=O)/C=C/c2ccc(Cl)cc2Cl)cc1CN1CCC=C(n2c(=O)[nH]c3ccccc32)C1; assay: Mixed type inhibition of human wild-type full length SHP2 assessed as substrate Vmax at 20 uM using H-Glu-Phe-pTyr-Ala-Glu-Val-Gly-Arg-Ser-Pro-Pro-Asp-Pro-Ala-Lys as substrate by Lineweaver-Burk plot analysis (reference value: 5.55 +/- 0.49 uM/min)
[6] = compound: CCOc1cc(O)c(C(=O)/C=C/c2ccc(Cl)cc2Cl)cc1CN1CCC=C(n2c(=O)[nH]c3ccccc32)C1; assay: Mixed type inhibition of human wild-type full length SHP2 assessed as substrate Vmax at 10 uM using H-Glu-Phe-pTyr-Ala-Glu-Val-Gly-Arg-Ser-Pro-Pro-Asp-Pro-Ala-Lys as substrate by Lineweaver-Burk plot analysis (reference value: 5.55 +/- 0.49 uM/min)
[7] = compound: CCOc1cc(O)c(C(=O)/C=C/c2ccc(Cl)cc2Cl)cc1CN1CCC=C(n2c(=O)[nH]c3ccccc32)C1; assay: Mixed type inhibition of human wild-type full length SHP2 assessed as substrate Kcat at 20 uM using H-Glu-Phe-pTyr-Ala-Glu-Val-Gly-Arg-Ser-Pro-Pro-Asp-Pro-Ala-Lys as substrate by Lineweaver-Burk plot analysis (reference value: 3.19 +/- 0.28 Sec'-1)
[8] = compound: CCOc1cc(O)c(C(=O)/C=C/c2ccc(Cl)cc2Cl)cc1CN1CCC=C(n2c(=O)[nH]c3ccccc32)C1; assay: Mixed type inhibition of human wild-type full length SHP2 assessed as substrate Km at 10 uM using H-Glu-Phe-pTyr-Ala-Glu-Val-Gly-Arg-Ser-Pro-Pro-Asp-Pro-Ala-Lys as substrate by Lineweaver-Burk plot analysis (reference value: 0.034 +/- 0.012 mM)

B1: Tyrosine-protein phosphatase non-receptor type 11 (Homo sapiens), Q06124 (protein)
chain: MTSRRWFHPNITGVEAENLLLTRGVDGSFLARPSKSNPGDFTLSVRRNGAVTHIKIQNTGDYYDLYGGEKFATLAELVQYYMEHHGQLKEKNGDVIELKYPLNCADPTSERWFHGHLSGKEAEKLLTEKGKHGSFLVRESQSHPGDFVLSVRTGDDKGESNDGKSKVTHVMIRCQELKYDVGGGERFDSLTDLVEHYKKNPMVETLGTVLQLKQPLNTTRINAAEIESRVRELSKLAETTDKVKQGFWEEFETLQQQECKLLYSRKEGQRQENKNKNRYKNILPFDHTRVVLHDGDPNEPVSDYINANIIMPEFETKCNNSKPKKSYIATQGCLQNTVNDFWRMVFQENSRVIVMTTKEVERGKSKCVKYWPDEYALKEYGVMRVRNVKESAAHDYTLRELKLSKVGQGNTERTVWQYHFRTWPDHGVPSDPGGVLDFLEEVHHKQESIMDAGPVVVHCSAGIGRTGTFIVIDILIDIIREKGVDCDIDVPKTIQMVRSQRSGMVQTEAQYRFIYMAVQHYIETLQRRIEEEQKSKRKGHEYTNIKYSLADQTSGDQSPLPPCTPTPPCAEMREDSARVYENVGLMQQQKSFR
- kcat [1]: 1.5 s⁻¹
- kcat/Km [2]: 17200 M⁻¹ s⁻¹
- kcat/Km [3]: 33200 M⁻¹ s⁻¹
- Km [4]: 52 µM
- Vmax [5]: 1.5 µM/min
- Vmax [6]: 2.6 µM/min
- kcat [7]: 0.86 s⁻¹
- Km [8]: 47 µM
